Series [1] deals with T1, PqsA (PqsAFL) (Pseudomonas aeruginosa, UniProt Q9I4X3).
T1 construct: full length, expressed in E. coli T7 Express with 6x-His-CPD tag, tag cut
Briefly: anthraniloyl-CoA formation, absorbance at […] nm. Type of series: biochemical. The following applies: assay with added ArqI.

Series [2] addresses T2, ArqI (PA0709), Aldehyde responsive quorum-sensing Inhibitor (Pseudomonas aeruginosa, UniProt Q9I5L9).
T2 construct: full length (98 residues), expressed in E. coli as His6-SUMO fusion, SUMO tag cut, N-terminal SGGG left; hexamer; numbering from Met1
The experiment in a line: X-ray crystallography and mass spectrometry of Arg49 adduct. It counts as binding. To be noted: covalent; Arg49 in chains C, D, E; hemiaminal or carboxymethylarginine adduct (+58 amu).

In series [3] the target is T3, PqsA full-length protein, purified (Pseudomonas aeruginosa MPAO1, UniProt Q9I4X3 1-517).
T3 construct: also called PqsAFL; FL
T3 sequence: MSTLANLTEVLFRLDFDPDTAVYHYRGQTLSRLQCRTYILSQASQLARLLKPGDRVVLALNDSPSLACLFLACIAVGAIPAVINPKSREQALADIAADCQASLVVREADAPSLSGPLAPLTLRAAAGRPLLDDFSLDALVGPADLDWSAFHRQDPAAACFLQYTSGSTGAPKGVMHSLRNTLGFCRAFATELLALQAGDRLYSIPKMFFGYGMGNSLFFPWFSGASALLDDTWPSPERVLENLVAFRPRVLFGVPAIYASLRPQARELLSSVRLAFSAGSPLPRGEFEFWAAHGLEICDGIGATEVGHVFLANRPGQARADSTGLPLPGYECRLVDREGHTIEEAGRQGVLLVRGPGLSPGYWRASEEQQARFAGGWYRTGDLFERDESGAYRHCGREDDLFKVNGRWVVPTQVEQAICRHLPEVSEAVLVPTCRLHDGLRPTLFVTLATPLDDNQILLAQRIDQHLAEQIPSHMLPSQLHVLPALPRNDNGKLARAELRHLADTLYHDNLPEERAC
The experiment in a line: other fluorescence titration. To be noted: both partners purified.

Series [4] concerns the molecule itself. Briefly: crystal structure; native ArqI, crystals from 50 mM sodium acetate pH 5.0, 12% PEG 4000; C 222_1 cell, 6 subunits in the asymmetric unit, 2.0 Å.
Series [5] deals with the molecule itself. The experiment in a line: SEC; HiLoad Superdex 75 16/600 pg or Superose 6 Increase 10/300 GL; 2 mL at 10 mg/mL; 50 mM Tris-Cl pH 8.0, 150 mM NaCl, 1 mM βME (a buffer with 500 mM NaCl, pH 7.4, is also named); RT. In general terms: SEC sorts molecules by how far they enter the pores of the column.
Series [6] concerns the molecule itself. The experiment in a line: crystal structure.

Positions count from the first letter of the chain named. Names and notes keep the numbering of the source. Values joined by “and” are separate entries in the source; they are usually repeats but may differ in a detail not shown here. Equal values may be shown once.

On to `CC(C)(COP(=O)(O)OP(=O)(O)OC[C@H]1O[C@@H](n2cnc3c(N)ncnc32)[C@H](O)[C@@H]1OP(=O)(O)O)[C@@H](O)C(=O)NCCC(=O)NCCS` [CoA, coenzyme A], for which the “anthraniloyl-CoA formation, absorbance at 375 nm” value in series [1] (with anthranilate and ATP) was “purified PqsA protein with CoA, ATP, and anthranilate”.
As to `O=CC=O` [GO, glyoxal], the “X-ray crystallography and mass spectrometry of Arg49 adduct” value in series [2] was “A glyoxal modification was observed on Arg49 for three subunits (chains C, D and E)”.
Regarding `Nc1ccccc1C(=O)O` [anthranilate], the “anthraniloyl-CoA formation, absorbance at 375 nm” value in series [1] (with CoA and ATP) was “purified PqsA protein with CoA, ATP, and anthranilate”.

B1: Aldehyde responsive quorum-sensing Inhibitor (ArqI), wild type, purified (natural protein)
chain: SGGGMTYHVLVQFDVPSDKREAFAAAGLFDANGSLQNEPGTLRFEVIRDENNRNRFYLDEVYEDEAAFLQHCRNETIARFYELIDSYAFGPLFLFKGYRVEG
notes: also called PA0709; WT ArqI
What is called Kd is the free concentration of one partner at which half of the binding sites on the other are occupied at equilibrium, for simple one-to-one binding. Lower therefore signals a tighter complex. As usually defined, the stoichiometry N is a count of units in the complex or per binding partner. For the molecule B1, binding in series [3] was put at a Kd of 43 µM. Moreover, in series [4], the “stoichiometry N” value was determined as 6.

B2: ArqI P87G variant, purified (natural protein)
chain: B1 chain with P91G
notes: source: E. coli, purified as the wild type
B2: the “stoichiometry N” value in series [5] was 2.

B3: ArqI R16A variant, purified (natural protein)
chain: B1 chain with R20A
modifications: in the crystal: βME-modified Cys68
notes: source: E. coli, purified as the wild type (Ni-NTA, ULP1 cleavage, SEC)
Take B3: the results for the “stoichiometry N” value in series [6] and in series [5] were 6 and 2, respectively.

B4: ArqI R49Q variant, purified (natural protein)
chain: B1 chain with R53Q
notes: as for B2
For B4, in series [5], the “stoichiometry N” value was 6 and 2.

The values above are taken from publication PMC12274486, “A glyoxal-specific aldehyde signaling axis in Pseudomonas aeruginosa that influences quorum sensing and infection” (Nature Communications, 2025).
